T1: human CD19 on Nalm6 B cells (human, UniProt P15391 20-556)
T1 sequence: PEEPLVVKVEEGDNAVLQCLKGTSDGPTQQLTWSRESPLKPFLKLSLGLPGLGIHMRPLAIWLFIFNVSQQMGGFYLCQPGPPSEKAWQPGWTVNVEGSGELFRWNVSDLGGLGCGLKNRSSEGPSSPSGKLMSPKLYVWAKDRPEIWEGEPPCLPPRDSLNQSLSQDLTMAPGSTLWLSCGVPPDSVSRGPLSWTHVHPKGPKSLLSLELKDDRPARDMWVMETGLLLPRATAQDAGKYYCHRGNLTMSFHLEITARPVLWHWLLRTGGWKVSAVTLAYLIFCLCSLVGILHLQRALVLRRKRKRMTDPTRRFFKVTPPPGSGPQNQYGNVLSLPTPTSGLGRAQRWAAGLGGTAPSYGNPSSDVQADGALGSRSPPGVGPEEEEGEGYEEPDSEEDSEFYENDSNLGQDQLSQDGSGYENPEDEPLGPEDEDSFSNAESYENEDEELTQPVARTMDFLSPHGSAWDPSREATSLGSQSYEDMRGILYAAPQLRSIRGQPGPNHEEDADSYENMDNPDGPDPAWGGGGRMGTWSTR


How the values were obtained:
[1] = target: T2, human FAP on 3T3-huFAP cells (clone 19) (human, UniProt Q12884 1-760); experiment: flow cytometry on 3T3-huFAP cells, PE anti-human secondary antibody, median fluorescence intensity
[2] = target: T2, human FAP on 3T3-huFAP cells (clone 19); experiment: flow cytometry on 3T3-huFAP cells, median fluorescence intensity (axis MFI APC)
[3] = target: T3, human CD28 on CHO cells (parental cell line CHO-k1 ATCC #CCL-61, modified to stably overexpress human CD28) (human, UniProt P10747 19-220); experiment: flow cytometry on CHOk1-CD28 cells
T3 construct: also called hu CD28; CHO-hCD28

[4] = target: T1, human CD19 on Nalm6 B cells; experiment: flow cytometry on Nalm6 B cells

| Binder | EC50 (read off the curve) [2] [nM] | other results |
| --- | --- | --- |
| FAP-CD28CA 1+2 (P1AD8962) (bispecific antibody, also called Molecule Q; FAP(4B9)-CD28(mAb9.3) 1+2) CD28(mAb 9.3) light chain: DIELTQSPASLAVSLGQRATISCRASESVEYYVTSLMQWYQQKPGQPPKLLIFAASNVESGVPARFSGSGSGTNFSLNIHPVDEDDVAMYFCQQSRKVPYTFGGGTKLEIKRTVAAPSVFIFPPSDEQLKSGTASVVCLLNNFYPREAKVQWKVDNALQSGNSQESVTEQDSKDSTYSLSSTLTLSKADYEKHKVYACEVTHQGLSSPVTKSFNRGEC heavy chain CD28(mAb 9.3) VHCH - Fc knob - FAP(4B9) VH: not shown heavy chain CD28(mAb 9.3) VHCH - Fc hole - FAP(4B9) VL: EVKLQQSGPGLVTPSQSLSITCTVSGFSLSDYGVHWVRQSPGQGLEWLGVIWAGGGTNYNSALMSRKSISKDNSKSQVFLKMNSLQADDTAVYYCARDKGYSYYYSMDYWGQGTSVTVSSASTKGPSVFPLAPSSKSTSGGTAALGCLVKDYFPEPVTVSWNSGALTSGVHTFPAVLQSSGLYSLSSVVTVPSSSLGTQTYICNVNHKPSNTKVDKKVEPKSCDKTHTCPPCPAPEAAGGPSVFLFPPKPKDTLMISRTPEVTCVVVDVSHEDPEVKFNWYVDGVEVHNAKTKPREEQYNSTYRVVSVLTVLHQDWLNGKEYKCKVSNKALGAPIEKTISKAKGQPREPQVCTLPPSRDELTKNQVSLSCAVKGFYPSDIAVEWESNGQPENNYKTTPPVLDSDGSFFLVSKLTVDKSRWQQGNVFSCSVMHEALHNHYTQKSLSLSPGGGGGSGGGGSGGGGSGGGGSEIVLTQSPGTLSLSPGERATLSCRASQSVTSSYLAWYQQKPGQAPRLLINVGSRRATGIPDRFSGSGSGTDFTLTISRLEPEDFAVYYCQQGIMLPPTFGQGTKVEIK | – | binding result [1]: binds |
| CD19 (8B8-2B11)-CD28 (SA_v29) 1+1 (Molecule 18A) (bispecific antibody, human IgG1, kappa, L234A L235A, huIgG1 PG-LALA CrossFab; also called P1AE8002; CD19-CD28 v29) heavy 1: not shown light 1: not shown heavy 2: DIVMTQTPLSLSVTPGQPASISCKSSQSLETSTGTTYLNWYLQKPGQSPQLLIYRVSKRFSGVPDRFSGSGSGTDFTLKISRVEAEDVGVYYCLQLLEDPYTFGQGTKLEIKSSASTKGPSVFPLAPSSKSTSGGTAALGCLVKDYFPEPVTVSWNSGALTSGVHTFPAVLQSSGLYSLSSVVTVPSSSLGTQTYICNVNHKPSNTKVDKKVEPKSCDKTHTCPPCPAPEAAGGPSVFLFPPKPKDTLMISRTPEVTCVVVDVSHEDPEVKFNWYVDGVEVHNAKTKPREEQYNSTYRVVSVLTVLHQDWLNGKEYKCKVSNKALGAPIEKTISKAKGQPREPQVCTLPPSRDELTKNQVSLSCAVKGFYPSDIAVEWESNGQPENNYKTTPPVLDSDGSFFLVSKLTVDKSRWQQGNVFSCSVMHEALHNHYTQKSLSLSP light 2: QVQLVQSGAEVKKPGASVKVSCKASGYTFTDYIMHWVRQAPGQGLEWMGYINPYNDGSKYTEKFQGRVTMTSDTSISTAYMELSRLRSDDTAVYYCARGTYYYGPQLFDYWGQGTTVTVSSASVAAPSVFIFPPSDEQLKSGTASVVCLLNNFYPREAKVQWKVDNALQSGNSQESVTEQDSKDSTYSLSSTLTLSKADYEKHKVYACEVTHQGLSSPVTKSFNRGEC | – | EC50 [3]: 6.65 nM; EC50 [4]: 0.274 nM |
| FAP-CD28 CTF (P1AE2236) (bispecific antibody, human IgG1, kappa, L234A L235A, also called Molecule I; FAP(4B9)-CD28(SA) C-04) CD28(SA) light chain: not shown heavy chain CD28(SA) VHCH - Fc hole - FAP(4B9) VL: QVQLVQSGAEVKKPGASVKVSCKASGYTFTSYYIHWVRQAPGQGLEWIGCIYPGNVNTNYNEKFKDRATLTVDTSISTAYMELSRLRSDDTAVYFCTRSHYGLDWNFDVWGQGTTVTVSSASTKGPSVFPLAPSSKSTSGGTAALGCLVKDYFPEPVTVSWNSGALTSGVHTFPAVLQSSGLYSLSSVVTVPSSSLGTQTYICNVNHKPSNTKVDKKVEPKSCDKTHTCPPCPAPEAAGGPSVFLFPPKPKDTLMISRTPEVTCVVVDVSHEDPEVKFNWYVDGVEVHNAKTKPREEQYNSTYRVVSVLTVLHQDWLNGKEYKCKVSNKALGAPIEKTISKAKGQPREPQVCTLPPSRDELTKNQVSLSCAVKGFYPSDIAVEWESNGQPENNYKTTPPVLDSDGSFFLVSKLTVDKSRWQQGNVFSCSVMHEALHNHYTQKSLSLSPGGGGGSGGGGSGGGGSGGGGSEIVLTQSPGTLSLSPGERATLSCRASQSVTSSYLAWYQQKPGQAPRLLINVGSRRATGIPDRFSGSGSGTDFTLTISRLEPEDFAVYYCQQGIMLPPTFGQGTKVEIK Fc knob - FAP(4B9) VH: not shown | ~2 | – |
| FAP(4B9)-CD28(SA) 1+1 format (Molecule C) (bispecific antibody, human IgG1, kappa, L234A L235A, huIgG1 PG-LALA CrossFab, knob-into-hole; also called P1AD4492; parental) heavy 1: not shown light 1: not shown heavy 2: EIVLTQSPGTLSLSPGERATLSCRASQSVTSSYLAWYQQKPGQAPRLLINVGSRRATGIPDRFSGSGSGTDFTLTISRLEPEDFAVYYCQQGIMLPPTFGQGTKVEIKSSASTKGPSVFPLAPSSKSTSGGTAALGCLVKDYFPEPVTVSWNSGALTSGVHTFPAVLQSSGLYSLSSVVTVPSSSLGTQTYICNVNHKPSNTKVDKKVEPKSCDKTHTCPPCPAPEAAGGPSVFLFPPKPKDTLMISRTPEVTCVVVDVSHEDPEVKFNWYVDGVEVHNAKTKPREEQYNSTYRVVSVLTVLHQDWLNGKEYKCKVSNKALGAPIEKTISKAKGQPREPQVCTLPPSRDELTKNQVSLSCAVKGFYPSDIAVEWESNGQPENNYKTTPPVLDSDGSFFLVSKLTVDKSRWQQGNVFSCSVMHEALHNHYTQKSLSLSP light 2: EVQLLESGGGLVQPGGSLRLSCAASGFTFSSYAMSWVRQAPGKGLEWVSAIIGSGASTYYADSVKGRFTISRDNSKNTLYLQMNSLRAEDTAVYYCAKGWFGGFNYWGQGTLVTVSSASVAAPSVFIFPPSDEQLKSGTASVVCLLNNFYPREAKVQWKVDNALQSGNSQESVTEQDSKDSTYSLSSTLTLSKADYEKHKVYACEVTHQGLSSPVTKSFNRGEC | ~1 | – |

Now from value to binder, other results behind:

| EC50 (read off the curve) [2] [nM] | Binder | other results |
| --- | --- | --- |
| ~1 | FAP-CD28 H2T (P1AE2021) (bispecific antibody, human IgG1, kappa, L234A L235A, head-to-tail 1+1 format; also called Molecule H; FAP(4B9)-CD28(SA) C-01) heavy chain CD28(SA) VLCH1 - FAP(4B9) VHCH1 EE - Fc knob PGLALA: not shown CD28(SA) VHCL: QVQLVQSGAEVKKPGASVKVSCKASGYTFTSYYIHWVRQAPGQGLEWIGCIYPGNVNTNYNEKFKDRATLTVDTSISTAYMELSRLRSDDTAVYFCTRSHYGLDWNFDVWGQGTTVTVSSASVAAPSVFIFPPSDEQLKSGTASVVCLLNNFYPREAKVQWKVDNALQSGNSQESVTEQDSKDSTYSLSSTLTLSKADYEKHKVYACEVTHQGLSSPVTKSFNRGEC FAP(4B9) VLCL RK: EIVLTQSPGTLSLSPGERATLSCRASQSVTSSYLAWYQQKPGQAPRLLINVGSRRATGIPDRFSGSGSGTDFTLTISRLEPEDFAVYYCQQGIMLPPTFGQGTKVEIKRTVAAPSVFIFPPSDRKLKSGTASVVCLLNNFYPREAKVQWKVDNALQSGNSQESVTEQDSKDSTYSLSSTLTLSKADYEKHKVYACEVTHQGLSSPVTKSFNRGEC Fc hole PGLALA: DKTHTCPPCPAPEAAGGPSVFLFPPKPKDTLMISRTPEVTCVVVDVSHEDPEVKFNWYVDGVEVHNAKTKPREEQYNSTYRVVSVLTVLHQDWLNGKEYKCKVSNKALGAPIEKTISKAKGQPREPQVCTLPPSRDELTKNQVSLSCAVKGFYPSDIAVEWESNGQPENNYKTTPPVLDSDGSFFLVSKLTVDKSRWQQGNVFSCSVMHEALHNHYTQKSLSLSP | – |
| ~4 | FAP(4B9)-CD28(SA) 1+2 format (Molecule E) (bispecific antibody, human IgG1, kappa, L234A L235A, bivalent anti-CD28, monovalent anti-FAP (VH and VL fused to the C-termini of the Fc chains); also called P1AD9011; FAP-CD28 1+2 SA) heavy 1: not shown heavy 2: QVQLVQSGAEVKKPGASVKVSCKASGYTFTSYYIHWVRQAPGQGLEWIGCIYPGNVNTNYNEKFKDRATLTVDTSISTAYMELSRLRSDDTAVYFCTRSHYGLDWNFDVWGQGTTVTVSSASTKGPSVFPLAPSSKSTSGGTAALGCLVKDYFPEPVTVSWNSGALTSGVHTFPAVLQSSGLYSLSSVVTVPSSSLGTQTYICNVNHKPSNTKVDKKVEPKSCDKTHTCPPCPAPEAAGGPSVFLFPPKPKDTLMISRTPEVTCVVVDVSHEDPEVKFNWYVDGVEVHNAKTKPREEQYNSTYRVVSVLTVLHQDWLNGKEYKCKVSNKALGAPIEKTISKAKGQPREPQVCTLPPSRDELTKNQVSLSCAVKGFYPSDIAVEWESNGQPENNYKTTPPVLDSDGSFFLVSKLTVDKSRWQQGNVFSCSVMHEALHNHYTQKSLSLSPGGGGGSGGGGSGGGGSGGGGSEIVLTQSPGTLSLSPGERATLSCRASQSVTSSYLAWYQQKPGQAPRLLINVGSRRATGIPDRFSGSGSGTDFTLTISRLEPEDFAVYYCQQGIMLPPTFGQGTKVEIK light: not shown | – |

Source: patent publication US20230416365A1 (Hoffmann-La Roche, published 2023)
